Experimental findings from a protein production outcome set (Wang et al. 2014) are described below.

This series is described as follows: label from the status in PepcDB records.
As for “MKFVKASLYLSIALAISACGEQVSVESHLENAKSYLNENKVNESIIELKNAIRADTKNAEARFLLGQIYLSLGDGLAAVKELERAQSLKYPDNKVLPLLARAYILTDSDSDVIALSTAAKGLAAEERSQYLAYQTLAALRSEQPDLAKQSVELAQSIAQQSLYSMLASAYLQLSENKYDEVKTLISRILTIEAKQVDALMLQGQVAMVTEEYQLAVDSFKQYMELQPRFSMVELLLANALLKAGHDEEAEQHADAILAKVNNQPFANYIKAMVRFQAKDFDKASEHAEAALSADFNQFNLKLVAGASAFYLKNWQQSYHHLSAIVKYLPNDHQARRMLAVTQLELGLIDEISATIGDFDGNDEVNSQFLSSLSYKLLELGATTEAKKLLAQNGQNSSKNAAHNARQGILKLMMNDPSGIENLQDAVKLNPELIEAELAIAFSALQRGDIAKANAIAEKWQKQYPDKASSFNLLASIAIKEGKYDKAEQALKKSLSLEQDNFFALTEQLRIARKQENIPLSKQRADYLITIAPTNNKVLRQYFGVYRNEMALAKLTAAYELDKTDINKAILLSEAMVSLGQLKQAESILVSIADTAKLPKRYWQLLLLTYKKQKNFEKIRPTLEKWLKENPYHIEAVVLLTDFYASQRNYERALTVIKRGLDNHKDNLVLQLVQMQLLLNNKQISPAKSLYKIIENKNINDALKQGLLGRIYLLEEDYVQALPKLTVFYQTYPSSQNAIYLAGAHLGNKDNAKAVKVLEHYLTIDANNNRIETMLAGIYLENDSDKAIAVYDDVVKKQPKNVVAHNNLAWLYLEQDNISKALEHAEKALELAPQIANIVDTYAKVLLGSGDKRAALQYASKASEIAKGKDVDIQLNYVEALIANNRINEAKDLLAKVATATDEQKNKKSKLLAQL”, the protein production result was “failed”.

As for “MKGKILDYSVQTNTAIIRTEDQKHYSFLGSAWREWIVPMPGMHVYFELDAQGEVTEVFIDVPEEDTPIAKPILTPVKAFITAPLMVDMQDKQHHTMLEKEAHYCMIDWVIKCFKNALDFKGRARRQEFWSFQFFYTVLGVGMLAFGHFLDLGHTLFIVSSIFMLLPALAVSVRRLHDINRSGWLLLINLVPIVGVLIVIFFFMTEEGDSRANAFGPPSK”, the protein production entry is on record as “failed”.

On to “MKGLKALILVILVLGLVVGSVAAAPEKKVEQVRNVEKNYGLLTPGLFRKIQKLNPNEEISTVIVFENHREKEIAVRVLELMGAKVRYVYHIIPAIAADLKVRDLLVISGLTGGKAKLSGVRFIQEDYKVTVSAELEGLDESAAQVMATYVWNLGYDGSGITIGIIDTGIDASHPDLQGKVIGWVDFVNGRSYPYDDHGHGTHVASIAAGTGAASNGKYKGMAPGAKLAGIKVLGADGSGSISTIIKGVEWAVDNKDKYGIKVINLSLGSSQSSDGTDALSQAVNAAWDAGLVVVVAAGNSGPNKYTIGSPAAASKVITVGAVDKYDVITSFSSRGPTADGRLKPEVVAPGNWIIAARASGTSMGQPINDYYTAAPGTSMATPHVAGIAALLLQAHPSWTPDKVKTALIETADIVKPDEIADIAYGAGRVNAYKAINYDNYAKLVFTGYVANKGSQTHQFVISGASFVTATLYWDNANSDLDLYLYDPNGNQVDYSYTAYYGFEKVGYYNPTDGTWTIKVVSYSGSANYQVDVVSDGSLSQPGSSPSPQPEPTVDAKTFQGSVHYYYDRSDTFTMTVNSGATKITGDLVFDTSYHDLDLYLYDPNQKLVDRSESSNSYEHVEYLNPAPGTWYFLVYAYYTYGWAYYELTAKVYYG”, for which the protein production result is given as “failed”.

Turning to “MKGREMKIVEFMKDKMVYIVFTLIFSSIYAGVHHRSIFLSLKVTLPIALFMMLFQPMVFMDIKKAFTTRTRVKTKYLILLTFFYTLLFPVLTWIFLKFWLRMMPNTEPQLLAGMVLIGLAPLPSSSPAFTNLAGGRFQLTLVGVMWTFLLSIFVMPFYAKLILHTIIQVPIEMLLKSLILYIITPLIIGQLTKYIILHWKGTDALISLKKPLIGISLIGMYWMIVVVFGINAKVIVERPELILIGAITMNIYFLLRAAIAYFIGKALDFPFEQNISLVYSTGSNMTLATAMAIGTFGPLAAVGTALGGPFSDMLLMIFFVKLFTLIRKKYIHNERKSITGG”, the protein production entry is “failed”.

Consider “MKGRSGDVNINTNAISTPARVLIYSTAAVLLTIGMKAISSILMPIFFSIFSYLIFAPLVRWLMRKRVPGKISVVLVILVFIFVFVGTTLLFANSLLQLSGRIPNYENQLTSILNSISIYLPEAGVSVESVLRDIAAFAFNVSGDIISGALNAGSTIALIVITTTFLLLDSAGAPVKMQKEGENQPVHISQYTELSRTVINYMLLRTETNLLGGIGTAILLLAGGIDFAVLWGLLFFLFGYIPYLGFYLAAIPPMLLGLFEYGLIGAVGVLVGITIINALVENVIFPSLAGKGLKLSPTLVFLSLFYWSFVLGAAGALIAVPLTIVVKIILESSEETRMIAKLMESSGTRDLDEKSTEENISE”, for which the protein production result is “failed”.

Consider “MKGRWVKYLLMGTVVAMLAACSSKPTDRGQQYKDGKFTQPFSLVNQPDAVGAPINAGDFAEQINHIRNSSPRLYGNQSNVYNAVQEWLRAGGDTRNMRQFGIDAWQMEGADNYGNVQFTGYYTPVIQARHTRQGEFQYPIYRMPPKRGRLPSRAEIYAGALSDKYILAYSNSLMDNFIMDVQGSGYIDFGDGSPLNFFSYAGKNGHAYRSIGKVLIDRGEVKKEDMSMQAIRHWGETHSEAEVRELLEQNPSFVFFKPQSFAPVKGASAVPLVGRASVASDRSIIPPGTTLLAEVPLLDNNGKFNGQYELRLMVALDVGGAIKGQHFDIYQGIGPEAGHRAGWYNHYGRVWVLKTAPGAGNVFSG”, for which the protein production entry is on record as “not failed”.

Take “MKGWKRNLYILVVCQFLVVSAMTMIIPFLPLYLQELGVTDPSEVSLWAGIIFAANFLTAFLFSPLWSRLADRYGRKMMILRSGFGMALIIGLTGFAQGPLSLLCLRLLNGVISGFIPASIGLVATNTPKEKAGYALGFLQAGAVSGGICGPLIGGIMAQAFGYRMIFFLTGLCIFIAALVVLLFVNEQFTPNPKEEKTNTWGEFKKITAIRPIFSLYVVVFLIQFAVMGVNPLISLFVEELVSGVNVALFAGLAISATGFANMLSSMQLGKLSDKAGAHHVLFFCLLGTVIFMIPQAFVQQLWQLIVLRFFVGLSLGGLLPAANALVRMHAPKGMESRTYGFSTSALYLGNMVGPTVGGAVVATVGIRGLFLISAFTLLLTVWIVKGKVMPASDKQFRYEQNERKIASS”: the protein production entry is on record as “failed”.

With “MKHAKQIAEHATIQSFLNCYLRETGSGEWITEDKRIEDIFYHLFQRDTCSTYLCCRLSAQNITLYGEVIYKSPTDRHLFGEQFYYQMGDSNSVMKADYVTVITFLIKEMSINYGEGTNPAELMLRVIRSCQNIEEFTKERKEDTSALYGFHTSFIEAEQSLLFGHLTHPTPKSRQGILEWKSAMYSPELKGECQLHYFRAHKSIVNEKSLLLDSTTVILKEELRNDEMVSKEFISKYCNEDEYSLLPIHPLQAEWLLHQPYVQDWIEQGVLEYIGPTGKCYMATSSLRTLYHPDAKYMLKFSFPVKVTNSMRINKLKELESGLEGKAMLNTAIGEVLEKFPGFDFICDPAFITLNYGTQESGFEVIIRENPFYSEHADDATLIAGLVQDAIPGERTRLSNIIHRLADLESRSCEEVSLEWFRRYMNISLKPMVWMYLQYGVALEAHQQNSVVQLKDGYPVKYYFRDNQGFYFCNSMKEMLNNELAGIGERTGNLYDDYIVDERFRYYLIFNHMFGLINGFGTAGLIREEILLTELRTVLESFLPYNREPSTFLRELLEEDKLACKANLLTRFFDVDELSNPLEQAIYVQVQNPLVREVAVRS”, the protein production entry is reported as “failed”.

Regarding “MKHAQKYRYFSLLMGLVLLLSACQIGATTKDDNQAATKEATVELNRTTTPTLFFHGYAGTKNSFGSLLHRLEKQGATTQELVLLVKPDGTVVKERGALSGKATNPSVQVLFEDNKNNEWNQTEWIKNTLLYLQKNYQVNKANIVGHSMGGVSGLRYLGTYGQDTSLPKIEKFVSIGAPFNDFIDTSQQQTIETELENGPTEKSSRYLDYQEMINVVPEKLPILLIGGQLSPTDLSDGTVPLSSALAVNALLRQRGTQVTSQIIKGENAQHSQLHENPEVDQLLIEFLWPSKK”, the protein production entry is given as “failed”.

With “MKHLNIYIMLLGFSIFTGATFNLAKYTVGYFSPSSSAAWRFGLAAAVMLIILIFTEGIKKSQLRKNAVSYIVLGIIGIFGFNALFFVGLKYTSPVNGALIMGLNPLLTAILARIILKDNMTKKQVLGIFFAFIGVLLVITQGSIETIKTLSISGGDLIIFTGNVCWALYGVLGRRFVKDGTPLSTTTYTMVIGAVSLIVVSLFTSKPVSLSNIPIGVWGAIAFMAFFTSVLGYLWWNQGIKEIGASKTSLFFNLVPVVTMIISFAVGTPIKVFQVIGAVLVILGVLTASGVIRIPKYNTKEQSAI”, the protein production result is listed as “failed”.
